The test system of one assay is T47D. Briefly: Ad-mda7 growth inhibition, 3H-thymidine incorporation assay. It counts as cell-based, human. To be noted: T47D cells; four days after treatment. The procedure:
(§1) Cells were either plated at 500-2000 cells/well in 96-well format for Tritiated thymidine incoporation-Cell Proliferation Assay or plated at 10^5-10^6 cells/well in a 6 well plate for protein expression or Apoptosis assays or plated at 10^4 cells/well for Alamar-blue assay. […]
(§2) Growth inhibition of cells after treatment is measured by analysis of DNA-synthesis. Briefly, for the ^3H-thymidine incorporation assay cells will be plated at 200-5000 cell per well in a 96-well format and grown in DMEM/10% FBS in a 5% CO2 incubator at 37° C. overnight. The next day the media is aspirated and replace with […] DMEM/10% FBS containing the appropriate adenovirus at the appropriate MOI. Cells will be incubated with infecting media for 1 to 4 hrs and then diluted to […] total volume and grown overnight. Media is replaced with DMEM/10% FBS/mCi ^3H-thymidine and grown for 16 to 18 hrs. Stock solution of 100 uCi/mL of H3-thymidine (Amersham) is prepared by dilution into high glucose DMEM (GIBCO). ^3H-Thymidine was added to each well at a final concentration of 1 μCi/mL. The reaction is stopped 15 hours later by removal of the supernatant from recipient cells. […] The filter were dried and analyzed in Matrix 9600 (Packard) and cell proliferation using Viral Particles/cell against Tritiated Thymidine uptake counts were plotted.
Background: Uptake of a labelled nucleoside into DNA is a usual measure of proliferation.

Another assay deals with MCF-7. Described as above. As to conditions: MCF-7 cells; four days after treatment; tamoxifen 1 ng/ml. The class given is cell-based, human. On the procedure: as §1, §2
Assay [1] has as its system secretion of soluble MDA-7 protein. Briefly: Inhibition of glycosylation and secretion of MDA-7 protein. It counts as cell-based. The text has this:
Two antibiotics, Tunicamycin and Brefeldin A, have been used to provide a more detailed characterization of the secretion of soluble MDA-7. N-linked glycosylation plays an important role in a protein's ultimate processing, whether it is sorted to a lysosomal pathway, or translocated to the cell surface or secreted. Using Tunicamycin, the N-linked glycosylation process in the […] can be inhibited, thus inhibiting protein secretion or other sugar-dependent sorting processes.

The test system of assay [2] is PBMC. Briefly: Secondary cytokine secretion from PBMC (ELISA). The class given is cell-based, human. On the procedure:
FIG. 24. Effect of MDA-7 and IL-10 on inflammatory cytokine secretion from PBMC. Two ml/well (2×10^6 cells/ml) PBMC were plated in a 24 well plate and cultured untreated or with indicated amounts of MDA-7 (B 2 ng/ml; D,F 20 ng/ml), 5 μg/ml LPS, 5 μg/ml PHA, 500 U/ml IL-10 (˜17 ng/ml; R & D Systems, Minneapolis, Minn.) or combination of IL-10 and MDA-7. Supernatants were harvested at 48 hours and analyzed for cytokine content by ELISA (Endogen, Corp) according to manufacturer's instructions. Data from one representative donor are reported. * Indicates values above standard curve.
FIG. 25. […] Human PBMC were treated with 5 μg/ml LPS, 500 U/ml IL-10, 5 ng/ml MDA-7 or combinations for 48 hours. An equal volume of an S column fraction not containing MDA-7 as determined by Western (an MDA-7 Neg Fraction) was used as a control for buffer/salt content. Supernatants were harvested at 48 hours and analyzed for cytokine content by ELISA (Endogen, Corp) according to manufacturer's instructions. Data from one representative donor are reported. * Indicates value greater than 500 pg/ml IL-1β. ** Actual values are 539 pg/ml IL-12 and 893 pg/ml GM-CSF. Data from one representative donor are reported.
Activation of PBMC: PBMC were isolated from the peripheral blood of normal healthy donors by centrifugation over Histopaque (Sigma, St. Louis, Mo.). Cells were cultured at a concentration of 1×10^6 cells/ml in RPMI-1640 based media supplemented with L-glutamine, Hepes, penicillin, streptomycin, and 10% human AB serum (Pelfreez, Brown Deer, Wis.) for 72 hr in the presence of PHA-P at 5 μg/ml or LPS 10 μg/ml (both from Sigma, St. Louis, Mo.). Four hours prior to harvest Brefeldin A (BFA, Sigma-Aldrich) was added at a final concentration of 10 μg/ml. The supernatants as well as cells were then harvested.
ELISA assays. The ELISA reaction to detect human MDA-7 was carried out in 96-well plates using standard techniques and an antibody pair selected for sentivity. Elisa assays for cytokines were perfomed in an identical manner, employing commercially available kits as designated in the figure legends.
On the technique in general: ELISA stands for enzyme-linked immunosorbent assay.

Assay [3] concerns PBMC. Briefly: PBMC proliferation (thymidine uptake). The class given is cell-based, human. To be noted: 4 days of coculture; three donors. From the text:
Some cytokines can also function as growth factors. Therefore the proliferative simulation function of MDA-7 was addressed using PBMC. IL-10 was included as a negative cytokine control.

For another assay, the system named is H1299 cells. Briefly: Soluble MDA-7 supernatant killing, trypan blue exclusion. The class given is cell-based, human. To be noted: supernatants, 48 hours. The procedure:
FIG. 11A. Soluble MDA-7 (sMDA7) kills tumor cells. […] All the supernatants used in this experiment were filtered through a 0.1 micron filter prior to challenge with H1299 cells. FIG. 11B. H1299 cells were challenged with soluble MDA-7 supernatant from four different stocks and percentage dead cells evaluated after 48 hours: 1) 293*NF: Non-filtered supernatant obtained from modified 293 cells (cells were grown in serum-free conditions); 2) 293*F: 0.1 micron filtered supernatant obtained from modified 293 cells; 3) 293F: 0.1 micron filtered supernatant obtained from regular 293 cells (FBS+); and 4) H1299F: 0.1 micron filtered supernatant obtained from H1299 cells. D0 is non-diluted material whereas D1:1; D1:5, D1:10 indicate the dilutions used.
The secreted form of MDA-7 (sMDA-7) was produced using various cell lines and evaluated for anti-tumor activity. Soluble MDA-7 was analyzed for its anti-proliferative effects on H1299 cells. Briefly, H1299 cells were plated at cell density of 10^3 cells/chamber in Nunc chamber slides. 24 hours later, the cells were challenged with supernatants obtained from H1299 cells transduced with either Ad-mda-7 or Ad-luc (at 1000 vp/cell infection). Ad-mda7 and Ad-luc viruses were also used as additional controls. […]

Another assay deals with HUVEC cells. Briefly: Tube formation with purified MDA-7 protein. It counts as cell-based, human. The procedure:
HUVEC cells were administered increasing amounts of MDA-7 protein purified from 293-mda7 cells. Doses that were evaluated ranged from 0.5-100 ng/ml. The ED50 of MDA-7 ranged from 5-50 ng/ml. Endothelial differentiation in the cells was inhibited by MDA-7 protein, but not control cells, based on tube formation.
HUVEC cells were given varying doses of MDA-7 protein purified from 293-mda7 cells (lots 1-6) or from baculovirus exoressing mda-7. A positive control of Ad-mda7 and a negative control of Ad-luc were included in most assays.

Where [4] appears, read: 500 U/ml IL-10, 5 ng/ml MDA-7, 48 hours.
The mark [5] stands for this setting: 500 U/ml IL-10 added to PBMC stimulated by MDA-7.

`CC/C(=C(\c1ccccc1)c1ccc(OCCN(C)C)cc1)c1ccccc1` [tamoxifen]: the “DNA replication (tritiated thymidine assay)” value is reported as “minimal effect” in the assay on T47D and “little effect” with MCF-7.
As to Tunicamycin, the “secretion of soluble MDA-7 protein” value in assay [1] was “effectively inhibit the secretion of soluble MDA-7 protein”.
In the case of `C[C@H]1CCC/C=C/[C@@H]2C[C@H](O)C[C@H]2[C@H](O)/C=C/C(=O)O1` [Brefeldin A], the “secretion of soluble MDA-7 protein” value in assay [1] was “effectively inhibit the secretion of soluble MDA-7 protein”.

B1: IL-10: Human recombinant IL-10 purchased from R&D Systems (protein, UniProt P22301 19-178, looked up)
Interleukin-10: SPGQGTQSENSCTHFPGNLPNMLRDLRDAFSRVKTFFQMKDQLDNLLLKESLLEDFKGYLGCQALSEMIQFYLEEVMPQAENQDPDIKAHVNSLGENLKTLRLRLRRCHRFLPCENKSKAVEQVKNAFNKLQEKGIYKAMSEFDIFINYIEAYMTMKIRN
On to B1, for which, in the assay with PBMC [2] (setting [4]), the “effect of IL-10 on GM-CSF production” value is on record as “partially inhibited”, the “effect of IL-10 on IL-1β production” value is “partially inhibited” and the “effect of IL-10 on IL-12 production” value is recorded as “completely inhibited”. Besides, in the assay with PBMC [2] (setting [5]), the “effect of IL-10 on IFNγ induction by MDA-7” value is recorded as “completely abrogated”, the “effect of IL-10 on IL-6 induction by MDA-7” value is reported as “partially blocked” and the “effect of IL-10 on TNFα induction by MDA-7” value is “completely abrogated”. The “proliferation (thymidine uptake)” value in the assay with PBMC [3] is recorded as “did not induce increased thymidine uptake”.

B2: soluble MDA-7: secreted form of MDA-7 in filtered supernatants of cells transduced with Ad-mda7 (protein, UniProt Q13007 52-206, looked up)
Interleukin-24: QEFHFGPCQVKGVVPQKLWEAFWAVKDTMQAQDNITSARLLQQEVLQNVSDAESCYLVHTLLEFYLKTVFKNYHNRTVEVRTLKSFSTLANNFVLIVSQLQPSQENEMFSIRDSAHRRFLLFRRAFKQLDVEAALTKALGEVDILLTWMQKFYKL
B2: the “killing of H1299 cells” value is reported as “concentration-dependent bystander killing effect” in the assay with H1299 cells and “showed H1299 killing” in the assay on H1299 cells (listed as soluble MDA-7 protein).

B3: MDA-7: human MDA-7 protein secreted by and purified from stably transfected 293 cells (293-mda7) (protein)
chain: B2 Interleukin-24
As for B3, the “lowest doses inhibiting tube formation” value with HUVEC cells (MDA-7 protein from 293-mda7 cells (lots 1-6) or baculovirus) lay in the range of 0.5 to 10 ng/mL. Besides, in the assay with HUVEC cells (MDA-7 protein purified from 293-mda7 cells, doses 0.5-100 ng/ml), the “ED50 (inhibition of endothelial differentiation, tube formation)” value was 5 to 50 ng/mL. Moreover, in the assay with PBMC [2] (2 ng/ml of MDA-7, above the standard curve of the ELISA kit), the IL-6 secretion entry was “greater than 800 pg/ml”. The “IL-1β, IL-12 and GM-CSF secretion” value in the assay with PBMC [2] (5 ng/ml MDA-7, 48 hours) was “induces IL-1β, IL-12 and GM-CSF secretion”. In addition, in the assay with PBMC [2] (48 hours, ELISA), the “MDA-7 concentration stimulating maximal IL-6 secretion” value came out at 200 pg/mL; the “dose required to achieve optimal levels of TNFα and IFNγ secretion” value amounted to 2 ng/mL. Besides, in the assay with PBMC [2] (LPS 5 μg/ml positive control), the “induction of TNFα compared with LPS” value is “more potent inducer than the positive stimulation control LPS”. Besides, the “proliferation (thymidine uptake)” value in the assay on PBMC [3] was “did not induce significant proliferation”.

B4: recombinant MDA-7 expressed in E. coli and S. cerevisiae: recombinant MDA-7 expressed in E. coli and S. cerevisiae, used in preliminary experiments (protein, UniProt Q13007 52-206, looked up)
Interleukin-24: B2 Interleukin-24
For B4, in the assay with PBMC [2] (very high doses (μg/ml quantities) required), the “secondary cytokine production, preliminary experiments” value was “robust production of IL-6, TNFα, and IFNγ, very low levels of GM-CSF and IL-10, and no IL-2, IL-4, and IL-5”. In the assay on PBMC [3], the “proliferation (thymidine uptake)” value is recorded as “did not show a proliferative response”.

The values above are taken from patent US20020183271A1, “Methods of treatment involving human MDA-7” (priority 2000, published 2002).
